Residue numbers refer to the chain shown, from its start.
T1: human BCMA-Fc (Homo sapiens, UniProt Q02223)
T1 construct: purchased R&D Systems
T1 sequence (Q02223 1-54 limits assumed): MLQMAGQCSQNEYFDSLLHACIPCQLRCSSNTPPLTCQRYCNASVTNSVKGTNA

B1: 11D6: chicken antibody, VH SEQ ID NO 198, VL SEQ ID NO 220 (antibody, V domains shown)
VH: AVTLDESGGGLQTPGGTLSLVCKASGFTFSSFNMFWVRQAPGEGLEWVAYIRNDGRSTSYGPAVKGRATISRDNGQSTVRLQLNNLRAEDTGTYFCAKTTCVGSGGCIDTWGHGTEVIVSS
VL: ALTQPSSVSANPGETVEITCSGGNSDYGWFQQKSPGSAPVTVIYRNNQRPSDIPSRFSGSGSGSTNTLTITGVQAEDEAIYYCGNVDFTDDVFGAGTTLTVL
modifications: Synthetic 11D6, VH; Synthetic 11D6, VL
B2: 10G5: chicken antibody, VH SEQ ID NO 197, VL SEQ ID NO 219 (antibody, V domains shown)
VH: B1 VH with T17V, E43K, R52S, R56S, G92A, V102I
VL: B1 VL with E17K, S25Y, F30Y, V42L, R45Y, Q48K, G61K, N66G, G84A, F88S
modifications: Synthetic 10G5, VH; Synthetic 10G5, VL
B3: 9A8: chicken antibody, VH SEQ ID NO 196, VL SEQ ID NO 218 (antibody, V domains shown)
VH: B1 VH with E43K, R56N, T58A, G92A, F95Y, V102I
VL: B1 VL with E17K, N24S, R45S, D52G, G61K, N66G, G84A, F88Y
modifications: Synthetic 9A8, VH; Synthetic 9A8, VL
B4: 10F4: chicken antibody, VH SEQ ID NO 203, VL SEQ ID NO 225 (antibody, V domains shown)
VH: AVTLDESGGGLQTPGGALSLVCKASGFTFSGYNMGWVRQAPGKGLEYVAGITYGTGSYTAYGAAVKGRATISRDNGQSTLRLQLNNLRAEDTATYYCARGGGLNSYGCSGANIDAWGHGTEVIVSS
VL: ALTQPSSVSANLGGTVKITCSGGGNYFGSYYYGWYQQKAPGSAPVTVIYNNNNRPSDIPSRFSGSTSGSTSTLTISGVRAEDEAVYFCGGFDSSTDAIFGAGTTLTVL
modifications: Synthetic 10F4, VH; Synthetic 10F4, VL
B5: 9A5: chicken antibody, VH SEQ ID NO 208, VL SEQ ID NO 230 (antibody, V domains shown)
VH: AVTLDESGGGLQTPGGAVSLVCKASGFSISDYGMGWMRQAPGKGLQYVARIDHDGRYTDYGAVVKGRATISRDNGQSTVRLQLNNLRAEDTGTYYCTRGGGAASIDTWGHGTEVIVSS
VL: B4 VL with L12P, G14E, F27V, S29G, P44L, V47L, D57N, S76T, G90S
modifications: Synthetic 9A5, VH; Synthetic 9A5, VL
B6: 10H1: chicken antibody, VH SEQ ID NO 211, VL SEQ ID NO 233 (antibody, V domains shown)
VH: AVTLDESGGGLQTPGGALSLVCKASGFTFSGYGMGWMRQAPGKGLEYVARINSAGSDTDYGAAVKGRATISRDNGQSTVRLQLNNLRAEDTATYFCTRGGGGASIDGWGHGTEVIVSS
VL: B4 VL with L12P, G14E, F27Y, D57N, T66K, S71G, S76T, R79Q, T95S
modifications: Synthetic 10H1, VH; Synthetic 10H1, VL
B7: 10E10: chicken antibody, VH SEQ ID NO 212, VL SEQ ID NO 234 (antibody, V domains shown)
VH: AVTLDESGGGLQTPGGGLSLVCKASGFTFSSYGMGWMRQAPGKGLEFVARINSGGSSYTDYGSAVKGRATISRDDGQSTVRLQLNNLRAEDTGIYYCTRGGGGASIDGWGHGTEVIVSS
VL: B4 VL with L12P, G14E, F27A, A39S, V45L, N51S, T66L, S71G, S76T
modifications: Synthetic 10E10, VH; Synthetic 10E10, VL
B8: 9E12: chicken antibody, VH SEQ ID NO 209, VL SEQ ID NO 231 (antibody, V domains shown)
VH: B6 VH with A17G, G31D, M34L, D57G, D59Y, A62S, K65D, A92G, F95Y
VL: B4 VL with L12P, G14E, N25S, F27Y, A39S, V47L, S71G, S76T, F87Y, G90S
modifications: Synthetic 9E12, VH; Synthetic 9E12, VL
B9: 9H1: chicken antibody, VH SEQ ID NO 210, VL SEQ ID NO 232 (antibody, V domains shown)
VH: AVTLDESGGGLQTPGGALSLVCKGSGFTFSDYGMGWMRQAPGKGLQYVARINSAGSDTNYGSAVKGRATISRDDGQSTVRLQLSSLRAEDTGIYYCTRGGGGASIDGWGHGTEVIVSS
VL: B4 VL with L12P, G14E, N25S, F27Y, A39S, V47L, S71G, S76T, F87Y, G90S
modifications: Synthetic 9H1, VH; Synthetic 9H1, VL

Tested on: ARP-1
Assay: Cell killing with drug-conjugated 2° antibody (internalization), ARP-1
Assay type: cell-based, human
Conditions: Conjugate P 2° antibody 20 nM, 72 hrs
Description: (§1) The internalization of the antibodies was evaluated by drugs conjugated to secondary antibodies in a cell killing assay on BCMA positive cells. BCMA-positive cell lines ARP-1 and U266B1 were used to screen for internalizing leads. Cells were washed twice with calcium and magnesium-free Dulbecco's phosphate-buffered saline (DPBS), harvested with Accutase® (Innovative Cell Technologies; San Diego, Calif.) and counted by the Vi-CELL Cell Viability Analyzers (Beckman Coulter, Brea, Calif.). A total of 12,500 cells in a volume of 25 microliter were seeded in a 384-well flat bottom white polystyrene plate (Greiner Bio-One, Monroe, N.C.) on the day of assay. Lead antibodies were formulated at 4× starting concentration in the cell culture medium and filtered through MultiScreenHTS 96-Well Filter Plates (Millipore; Billerica, Mass.). 12.5 μL of the serial diluted antibody (1:3 serial dilution starting from 100 nM) was added into treatment wells and 12.5 μL of an anti-human nanobody conjugated to according to Conjugate P (hemiasterlin via a cleavable linker) or according to Conjugate M (maytansinoid via a non-cleavable linker) was then added into each well at a fixed final concentration of 20 nM. […] Data was fitted with non-linear regression analysis, using a log(inhibitor) vs. response-variable slope, 4 parameter fit with GraphPad Prism (GraphPad v 5.0, Software; San Diego, Calif.). Data was expressed as relative cell viability (ATP content) % vs. dose of antibody.

Point of comparison: B9, “Span (%)” value 74%. Against it:
- B1 — higher, 83%
- B2 — higher, 82%
- B3 — higher, 82%
- B4 — higher, 87%
- B5 — higher, 93%
- B6 — higher, 88%
- B7 — lower, 46%
- B8 — higher, 80%

Same assay, conditions: Conjugate P 2° antibody (hemiasterlin, cleavable linker) 20 nM, 72 hrs

Point of comparison: B5, EC50 0.7 nM. Against it:
- B1 — 5.4-fold higher, 3.8 nM
- B2 — 5-fold higher, 3.5 nM
- B3 — 3.4-fold higher, 2.4 nM
- B4 — within 1.5-fold, 1 nM
- B6 — within 1.5-fold, 0.86 nM
- B7 — 4.3-fold higher, 3 nM
- B8 — 1.7-fold higher, 1.2 nM
- B9 — 1.9-fold higher, 1.3 nM

Tested on: U266B1
Assay: Cell killing with drug-conjugated 2° antibody (internalization), U266B1
Assay type: cell-based, human
Conditions: Conjugate P 2° antibody 20 nM, 72 hrs
Description: as §1

Point of comparison: B2, EC50 1.9 nM. Against it:
- B1 — 1.7-fold lower, 1.1 nM
- B3 — within 1.5-fold, 2.3 nM
- B4 — 5.3-fold lower, 0.36 nM
- B5 — 6.6-fold lower, 0.29 nM
- B6 — 6.6-fold lower, 0.29 nM
- B7 — within 1.5-fold, 2.5 nM
- B8 — within 1.5-fold, 1.4 nM
- B9 — 1.7-fold lower, 1.1 nM

Point of comparison: B5, “Span (%)” value 84%. Against it:
- B1 — lower, 67%
- B2 — lower, 63%
- B3 — lower, 42%
- B4 — lower, 81%
- B6 — higher, 89%
- B7 — lower, 20%
- B8 — lower, 47%
- B9 — lower, 50%

Molecular target: T1, human BCMA-Fc
Assay: Biacore kinetics, human BCMA-Fc
Assay type: binding
Conditions: 25° C., 1-1 Langmuir model
Description: Anti-Fab or anti-Fc polyclonal antibodies were immobilized onto a CM5 chip (GE Life Sciences) using amine coupling chemistry (from Amine Coupling Kit, GE Life Sciences). The immobilization steps were carried out at a flow rate of 25 μL/min in 1×HBS-EP+ buffer (GE Life Sciences; 10× Stock diluted before use). The sensor surfaces were activated for 7 min with a mixture of NHS (0.05 M) and EDC (0.2 M). The anti-Fab or anti-Fc antibodies were injected over all 4 flow cells at a concentration of 25 μg/ml in 10 mM sodium acetate, pH 4.5, for 7 min. Ethanolamine (1 M, pH 8.5) was injected for 7 min to block any remaining activated groups. An average of 12,000 response units (RU) of capture antibody was immobilized on each flow cell.
Off-rate and kinetic binding experiments were performed at 25° C. using 1×HBS-EP+ buffer. Test and control antibodies were injected over the anti-Fab or anti-Fc surface at concentrations of 5-10 μg/mL for 12 seconds at a flow rate of 10 μL/min on flow cells 2, 3 and 4, followed by a buffer wash for 30 seconds at the same flow rate. […]
The data was fit with the Biacore T200 Evaluation software, using a 1-1 Langmuir binding model. KD (affinity, nM) was determined as a ratio of the kinetic rate constants calculated from the fits of the association and dissociation phases.

For B1, the “ka” value was 1.02e+06 M⁻¹ s⁻¹.

For B1, the “kd” value was 0.000318 s⁻¹.
